Test results taken from patent US5866538A, “Insulin preparations containing NaCl” (Novo Nordisk A/S, priority 1996, dated 1999).

Experiment: Stability tests of Asp^B28 human insulin preparations in Penfill cartridges, varying phosphate and NaCl (Example IV)
Assay type: physicochemical
Conditions: 19.6 μg Zn/100 U insulin, pH 7.4
Method: 375.7 mg Asp^B28 human insulin was dissolved in water by adding 1.6 ml 0.2N HCl and 49 μl zinc chloride solution (40 mg Zn/ml). 20 g of a solution containing 80 mg/g glycerol, 7.50 mg/g phenol and 8.60 mg/g m-cresol was added to the solution while mixing. Varying amounts (3.71 g to 6.71 g) of a solution containing 24.0 mg/g disodium phosphate dihydrate and 11 μl/g 2N sodium hydroxide was added while mixing, finally varying amounts (0 g to 3.65 g) of a solution containing 40 mg/g sodium chloride were added while mixing so as to obtain a sodium chloride concentration mentioned in table 6. pH was adjusted to pH 7.40±0.05 and water added up to 100 ml. The Asp^B28 Human insulin preparations were introduced into Penfill® cartridges and subjected to stability tests at 25° C. and 37° C. The stability data at the two different temperatures and three different phosphate concentrations and at 19.6 μg Zn/100 U insulin and pH=7.4 are summarized in Tables 4, 5 and 6.

[1] = 6 weeks at 37° C., NaCl added 20 mM, total Cl^- 23.8 mM, phosphate 5 mM
[2] = 6 weeks at 37° C., NaCl added 20 mM, total Cl^- 23.8 mM, phosphate 7 mM
[3] = 6 weeks at 37° C., NaCl added 20 mM, total Cl^- 23.8 mM, phosphate 9 mM
[4] = 6 weeks at 37° C., NaCl added 25 mM, total Cl^- 28.8 mM, phosphate 5 mM
[5] = 6 weeks at 37° C., NaCl added 25 mM, total Cl^- 28.8 mM, phosphate 7 mM
[6] = 6 weeks at 37° C., NaCl added 25 mM, total Cl^- 28.8 mM, phosphate 9 mM
[7] = 12 weeks at 25° C., NaCl added 0 mM, total Cl^- 3.8 mM, phosphate 5 mM
[8] = 12 weeks at 25° C., NaCl added 0 mM, total Cl^- 3.8 mM, phosphate 7 mM
[9] = 12 weeks at 25° C., NaCl added 5 mM, total Cl^- 8.8 mM, phosphate 5 mM
[10] = 12 weeks at 25° C., NaCl added 5 mM, total Cl^- 8.8 mM, phosphate 7 mM
[11] = 12 weeks at 25° C., NaCl added 5 mM, total Cl^- 8.8 mM, phosphate 9 mM
[12] = 12 weeks at 25° C., NaCl added 10 mM, total Cl^- 13.8 mM, phosphate 5 mM
[13] = 12 weeks at 25° C., NaCl added 10 mM, total Cl^- 13.8 mM, phosphate 7 mM
[14] = 12 weeks at 25° C., NaCl added 10 mM, total Cl^- 13.8 mM, phosphate 9 mM
[15] = 12 weeks at 25° C., NaCl added 15 mM, total Cl^- 18.8 mM, phosphate 5 mM
[16] = 12 weeks at 25° C., NaCl added 15 mM, total Cl^- 18.8 mM, phosphate 7 mM
[17] = 12 weeks at 25° C., NaCl added 15 mM, total Cl^- 18.8 mM, phosphate 9 mM
[18] = 12 weeks at 25° C., NaCl added 20 mM, total Cl^- 23.8 mM, phosphate 5 mM
[19] = 12 weeks at 25° C., NaCl added 20 mM, total Cl^- 23.8 mM, phosphate 7 mM
[20] = 12 weeks at 25° C., NaCl added 20 mM, total Cl^- 23.8 mM, phosphate 9 mM
[21] = 12 weeks at 25° C., NaCl added 25 mM, total Cl^- 28.8 mM, phosphate 5 mM
[22] = 12 weeks at 25° C., NaCl added 25 mM, total Cl^- 28.8 mM, phosphate 7 mM
[23] = 12 weeks at 25° C., NaCl added 25 mM, total Cl^- 28.8 mM, phosphate 9 mM

Substance: Asp^B28 human insulin
- Asp^B28 Des-amido insulins formed [1]: 2.7%
- Di- & polymers formed [1]: 1.1%
- Asp^B28 Des-amido insulins formed [2]: 2.9%
- Di- & polymers formed [2]: 1.0%
- Asp^B28 Des-amido insulins formed [3]: 3.5%
- Di- & polymers formed [3]: 1.0%
- Asp^B28 Des-amido insulins formed [4]: 3.0%
- Di- & polymers formed [4]: 0.9%
- Asp^B28 Des-amido insulins formed [5]: 2.8%
- Di- & polymers formed [5]: 1.1%
- Asp^B28 Des-amido insulins formed [6]: 3.1%
- Di- & polymers formed [6]: 0.9%
- Asp^B28 Des-amido insulins formed [7]: 2.2%
- Di- & polymers formed [7]: 0.5%
- Asp^B28 Des-amido insulins formed [8]: 2.0%
- Di- & polymers formed [8]: 0.5%
- Di- & polymers formed (12 weeks at 25° C., NaCl added 0 mM, total Cl^- 3.8 mM, phosphate 9 mM): 0.4%
- Asp^B28 Des-amido insulins formed [9]: 1.7%
- Di- & polymers formed [9]: 0.4%
- Asp^B28 Des-amido insulins formed [10]: 1.7%
- Di- & polymers formed [10]: 0.4%
- Asp^B28 Des-amido insulins formed [11]: 1.8%
- Di- & polymers formed [11]: 0.4%
- Asp^B28 Des-amido insulins formed [12]: 1.5%
- Di- & polymers formed [12]: 0.4%
- Asp^B28 Des-amido insulins formed [13]: 1.4%
- Di- & polymers formed [13]: 0.4%
- Asp^B28 Des-amido insulins formed [14]: 1.5%
- Di- & polymers formed [14]: 0.4%
- Asp^B28 Des-amido insulins formed [15]: 1.4%
- Di- & polymers formed [15]: 0.4%
- Asp^B28 Des-amido insulins formed [16]: 1.5%
- Di- & polymers formed [16]: 0.4%
- Asp^B28 Des-amido insulins formed [17]: 1.5%
- Di- & polymers formed [17]: 0.4%
- Asp^B28 Des-amido insulins formed [18]: 1.3%
- Di- & polymers formed [18]: 0.4%
- Asp^B28 Des-amido insulins formed [19]: 1.4%
- Di- & polymers formed [19]: 0.4%
- Asp^B28 Des-amido insulins formed [20]: 1.6%
- Di- & polymers formed [20]: 0.4%
- Asp^B28 Des-amido insulins formed [21]: 1.3%
- Di- & polymers formed [21]: 0.4%
- Asp^B28 Des-amido insulins formed [22]: 1.3%
- Di- & polymers formed [22]: 0.4%
- Asp^B28 Des-amido insulins formed [23]: 1.4%
- Di- & polymers formed [23]: 0.4%
